Results: article PMC13577073, “Cryo-EM structure of the glycosylated protein CgeA in the crust of Bacillus subtilis endospores” (The Journal of Microbiology, 2025)
Numbering of substitutions follows the chain as printed. Names and notes keep the numbering of the source.

B1: CgeA protein from Bacillus subtilis, wild type (natural protein, B. subtilis, UniProt P42089 1-133, looked up)
chain: MSSENAQLKKDLIKAVLSPLFPTATEGGENMDSNLKALLDAAIDQKVDESETVTAESILDPSLPARWIFARITPGTTISIVTDSGDMIGPVVFVAFDQVHGIVFVTQESSVTPAGQATTLIDVDKVESVTFFS
notes: CgeA, spore crust protein of B. subtilis; synthesized cgeA gene subcloned into NcoI/XhoI of pProEx-Hta; also called CgeA (WT); wild-type CgeA; source: E. coli BL21 (DE3), purified (Ni-NTA, TEV cleavage, HiTrap Q, Superdex 200); not shown: His6, N-terminal, cleaved
B2: CgeA A42C/D97C variant (natural protein, B. subtilis, UniProt P42089 1-133, looked up)
chain: B1 chain with A42C, D97C
notes: CgeA of B. subtilis with two cysteine mutations, made from pProEx-Hta-CgeA (WT) by QuikChange; residues 62-109 and 115-133 are modelled in the cryo-EM structure; The cysteines were designed to form a disulfide bond, which could not be seen unambiguously in the map; also called CgeA A42C/D97C mutant; CgeA mutant; source: E. coli BL21 (DE3), purified (Ni-NTA, TEV cleavage, HiTrap Q, Superdex 200); …

What was measured:
[1] = target: the molecule itself; assay: SEC-MALS; Superdex 200 Increase 10/300 GL; 20 mM Tris-HCl (pH 8.0), 150 mM NaCl; DAWN HELIOS II
[2] = target: the molecule itself; assay: SEC; wild type and A42C/D97C mutant compared; Superdex 200 column calibrated with reference proteins

Row | Protein | stoichiometry N [1] | stoichiometry N [2]
1 | B1 | 6 | 
2 | B2 |  | 6
